Data set [1] concerns the molecule itself. As to the kind of experiment: method not described ('our observations'); self-association.
The target in data set [2] is T1, Nod2 (wild-type, HA-tagged) (human, UniProt Q9HC29 1-1040).
T1 construct: Expressed in HEK293T cells and tested in cell extracts by co-immunoprecipitation; also called Nod2a; wt Nod2; not shown: HA tag; the plasmid is named both pcDNA3-Nod2-HA and pcDNA3-HA-Nod2, so the end that carries the ta
As to the kind of experiment: co-immunoprecipitation, HEK293T extracts. From the text:
Proteins co-immunoprecipitated with anti-HA antibody were detected with anti-Flag antibody. […] Proteins in total lysate were detected by anti-Flag and anti-HA monoclonal antibody, respectively. […]

B1: Nod2 lacking the LRRs (1-744) (other)
chain: MGEEGGSASHDEEERASVLLGHSPGCEMCSQEAFQAQRSQLVELLVSGSLEGFESVLDWLLSWEVLSWEDYEGFHLLGQPLSHLARRLLDTVWNKGTWACQKLIAAAQEAQADSQSPKLHGCWDPHSLHPARDLQSHRPAIVRRLHSHVENMLDLAWERGFVSQYECDEIRLPIFTPSQRARRLLDLATVKANGLAAFLLQHVQELPVPLALPLEAATCKKYMAKLRTTVSAQSRFLSTYDGAETLCLEDIYTENVLEVWADVGMAGPPQKSPATLGLEELFSTPGHLNDDADTVLVVGEAGSGKSTLLQRLHLLWAAGQDFQEFLFVFPFSCRQLQCMAKPLSVRTLLFEHCCWPDVGQEDIFQLLLDHPDRVLLTFDGFDEFKFRFTDRERHCSPTDPTSVQTLLFNLLQGNLLKNARKVVTSRPAAVSAFLRKYIRTEFNLKGFSEQGIELYLRKRHHEPGVADRLIRLLQETSALHGLCHLPVFSWMVSKCHQELLLQEGGSPKTTTDMYLLILQHFLLHATPPDSASQGLGPSLLRGRLPTLLHLGRLALWGLGMCCYVFSAQQLQAAQVSPDDISLGFLVRAKGVVPGSTAPLEFLHITFQCFFAAFYLALSADVPPALLRHLFNCGRPGNSPMARLLPTMCIQASEGKDSSVAALLQKAEPHNLQITAAFLAGLLSREHWGLLAECQTSEKALLRRQACARWCLARSLRKHFHSIPPAAPGEAKSVHAMPGFIWLIR
notes: also called Nod2ΔLRR; Nod2 (1-744)
In the case of B1, the binding result in data set [1] is reported as “binds”.

B2: Bcl-10 (other, UniProt O95999 1-233, looked up)
chain: MEPTAPSLTEEDLTEVKKDALENLRVYLCEKIIAERHFDHLRAKKILSREDTEEISCRTSSRKRAGKLLDYLQENPKGLDTLVESIRREKTQNFLIQKITDEVLKLRNIKLEHLKGLKCSSCEPFPDGATNNLSRSNSDESNFSEKLRASTVMYHPEGESSTTPFFSTNSSLNLPVLEVGRTENTIFSSTTLPRPGDPGAPPLPPDLQLEEEGTCANSSEMFLPLRSRTVSRQ
notes: Construct and tag not described
As to B2, in data set [2], the binding result is recorded as “no binding”.

The record behind these values is US20020197616A1 (REGENTS OF THE UNIVERSITY OF MICHIGAN, published 2002).
